Assay results published in the nanobody polyreactivity screen of Harvey et al. (2022).

Test: yeast display, Sf9 membrane polyspecificity reagent, FACS + sequencing; frameworks hold sequencing errors
Procedure, shortened: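 Nanobodies from a synthetic yeast display library (Saccharomyces cerevisiae BJ5465), induced 36–48 hours with galactose, were stained 1 hour at 4 °C with 10% biotinylated, detergent-solubilized Sf9 membrane reagent, enriched on streptavidin microbeads, then FACS-sorted. Anti-HA (expression) and streptavidin (reagent binding) fluorescence set low and high (top ~1%) gates. Polyreactivity labels come from the gate of origin. Genes were colony-PCR amplified, MiSeq 2 × 250 sequenced and filtered by CDR length.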

| Sequence | polyreactivity (PSR sort gate) |
| --- | --- |
| QVQLVESGGGLVQAGGSLRLSGAASGLIFWGYTMGWYRQAPGKERVLVAAISRRGGRTYYADSVKGRFTISRDNAKNTVYLQMHSLKPEDTAVDYCNADITSSGPKSDYWGQGTQVTVSS | high polyreactivity |
| QVQLVESGGGLVQAGGSLRLSCAASGSIFVINAMGWYRQAPGKERELVAAISYSGTGTYYADSVKGRFPISRDNAKITVYLQMNSLKPEDTAVYYCAADYYYRYRIYDYWGHGTQVTVSS | low polyreactivity |
| QVQLVESGGGLVQAGGSLRLSCAASGRSFRYNAMGWYRQAPGKARELVAAISSGGSTNYADSVKGRFTTTRDNAKNTVYLQMNSLKPEDTAVYYCNAVYVHRYPGWGYDYWGQGTQVTVSS | low polyreactivity |
| QVQLVESGGGLVQAGGSLRLSCAASGRIFGEYAMGWYRQAPGKERELVAAISGGGSTYYADSVKGRFTISRDNAKNTVYLQMNSLKPEDTAVFYCAVYSVYHEYDYWGQGTQVTVSS | low polyreactivity |
| QVQLVESGGGLVQAGGSLRLSCAASGNIFPRYAMGLYRQAPGKERELVAAITWRTSSTYYADSVKGRFTISRDNAKNTVYLQMNSLKPEDTAVYFCAKTSSRIAGEYWGQGTQVTVSS | low polyreactivity |
| QVQRVESGGGLVQAGGSLRLSCAASGSTLRYYAMGWYRQAPGKERELVAGIRYRGGSTSYADSVKGRFTISRDNAKNTVYLQMNSLKPEDTAVYYCATGIYRARTSSFRMGYWGQGTQVTVSS | low polyreactivity |
| QVQLVESGGGIVQAGGSLRLSCAASGLIFYTYAMGWYRQAPGKEREIVAAISRRGGSTYYADSVKGRFTISRDNAKNTVYLQMNSLKPEDTAVYYCNARGGRYGTYSHYGYWGQGTQVTVSS | high polyreactivity |
| QVQLVESGRGLVQAGGSLRLICAASGLTFHRYAMGWYRQAPGKERELVAALTWRGVSTYYADSVKGRFTISRDNAKNTVYLQMNSLKPEDTAVYYCAADDYFYDPYEYWGQGTIVTVSS | high polyreactivity |
| QVQLVESGGGLVQAGGSLRLSCAASGFIDVSYAMGWYRQAPGKERELVAAIDRIGGITYYADSVKGRFTISRDNAKNTVYLQMNSLKPEDTAVYYCAAAARYATVRVGREYYWGQGTQVTVSS | low polyreactivity |
| QVQLVESGGGLVQAGGSLRLSCAASGSTLKSYVMGWYRQAPGKERELVARISRSGGSTYYADSVKGRFTISRDNAKNTVYLQMNSLKPEDTAVYYCAAATPRLSYDYWGQGTQVTVSS | high polyreactivity |
| QVQLVESGGGLVQAGGSLRLSCAASGITFYVYAMGWYRQAPGKERELVAAISRRGGSTSYADSVKGRFTISRDNAKNTVYLQMNSLKPEDTAVYYCAKDTTYYQVYGYGYDYWGQGTQVTVSS | low polyreactivity |
| QVQLVESGGGLVHAGGPLRLSCAPSGFIFRGYAMGWYRQAPGKEREFVAAISGSGGSTYYADSVKGRFTISRDNAKNTVFLQMNSLKTDDTAVYYCNARFWGVWGGYDYWGQGTQVTVSS | high polyreactivity |
| QVQLVETGGGLVQAGGSLRLSCAASGSIFVYHAMGGYRQAPGKETEFVAVISNSGSRTYYADSVKGRFTISRDNAKNTVYLQMNSLKPEDTAVYYCAARYYYFQRAYDYWGQGTQVTVSS | high polyreactivity |
| QVQLVESGGVLVQAGGSLRLSCAASGSTFRRYAMGWYRQAPGKERELVAAITTRGGSTYYADSVKGRFTISRDNAKNTVYLQMNSLKPEDTAVYYCARDYSTYLRTAGDYWGQGTQVTVSS | low polyreactivity |
| QVQLVESGGGLVQAGGSLRLICAPSGSIFTYYAMGRYRQAPGKEKELVAAISQSGGTTYYADSVKGRFTISRDNAKNTVYLQMNSLKPEDTAVSYCAARAPSSFDTQYYYWGQGTQVTVSS | low polyreactivity |
| QVQLVESGGGLVQSGGSLRLSCAASGRIFGAYAMGWYRQAPGKDRELVAAITSAGSTHYADSVKGRFTISRDNAKNTVYLQMNSLKPEDTAVYYCAADGIASAYVLFDAYDFLYDYWGQGTQVTVSS | low polyreactivity |
| QVQLVESGGGLVQAGGSLRLSCAASGFTFPWNVMGWYRQAPGKEREFVAAISKSAGSTFYADSVKGRFTISRDNAKNTVYLQMNSLKPEDTAVYFCAKPRVPGVHVQEMYYWGQGTQVTVSS | low polyreactivity |
| QVHLVESGGGLDQAGGSLRLSCAASGRTFKSYTMGWYRQAPGKEREFVAAISSRGGNTYYADSVKGRFTISRDNAKNTVYLQMNSLKPEDTAVYYCAAESSYWSFPTYDYWGQGTQVTVSS | high polyreactivity |
| QVQLLESGGGLVQAGGSLRLSCAASGSTFRWYAMGWYRQAPGRERELVAAITWSGGRTYYADSVKGRFTISRDNAKNTVYLQMNSLKPEYTAVYYCNAVYYHVVDFDYWGQGTQVTVSS | high polyreactivity |
| QVQLVESGGGLVQAGGSLRLSCAASGYTFGPYAMGWYRQAPGKERELVAAITTRGGSTYYADSVKGRFTISRDNAKNTVYLQMNSLKPEDTAVYSCAAVVNSKSIQRVVRYYYWGQGTQVTVSS | high polyreactivity |
| QVQLVESGGGLVQAGGSLRLSCAASGRTFGPYVMGWYRQAPGKERELVAAISFSGGSTYYADSVKGRFTISRDNAKNTVYLQMNSLKPEDTAVYYCAARAVGGVRGYRYDYWGQGTQVTVSS | high polyreactivity |
| QVQLVESGGGIVQAGGSLRLSCAASGRIIGYYAMGWYIQAPGKERELVARISSSGGSTYYADSVKGRFTISRDNAKNTVYLQMNSLKPEVTAVYYCNTASNRFPGWRAEFDYWGQGTQVTVSS | low polyreactivity |

| Sequence | polyreactivity (PSR sort gate) |
| --- | --- |
| QVQLVESGGGLVQAGGSLRLSCAASGTFWWYAMGWYRQAPGKERELVASINRGGSTYYADSVKGRFTISRDNANNTVYLQMNSLKPEDTAVYYCNAGWIGRLTPYRRATYNYWGQGTQVTVSS | high polyreactivity |
| QVQHEESGGGLVQAGGSLRLSCAASGIIFYYYALGWYRQAPGKERELVAAITGTGSRTYYADSVKGRFTISRDNAKNTVYLQMNSLKPEDTAVYYCNARSFATGSKVPARGYWGHGTQVTVSS | high polyreactivity |
| QVQLVESGGGLVQAGGSLRLSCAASGSIFKPYAMGWYRQAPGKERELVAAINRGGTSTYYADSVKGRFTISRDNAKNTVYFQMNSLKPEDTAVYYCAAPNRYSVPMYYWGQGTQVTVSS | low polyreactivity |
| QVHLVESGGGLVQAGGSLRLSCAASGFTFDAYAMGWYRQAPGKERELVAAITRRSGSTYYADSVKGRFTISRDNAKNTVYLQMNSLKPEDTAVYYCAAVSVHRLGSTFGYWGQGTQVTVSS | high polyreactivity |
| QVHLVESGGGLVQAGGSLRLSCAASGFTFSYYAMGWYRQPPGKERELVAAITTSGGRTYYADSVKGRFPISRDNAKNTVYLQMNSLKPEDTAVYYCAATYPRYYSGEFDYWGQGTQVTVSS | high polyreactivity |
| QVQLVESGGGLVQAGASLRLSCSPSGRTFYYYAMGWYRPAPGKEREWVAAISQSGGSTYYADSVKGRFTISRDNAKKTVFLQMNSLKPEDTAVYYCKAYYGFGHRIYDFWGQGTQVTVSS | high polyreactivity |
| QVQIVESGGGLFQAGGRLPLSCAASGSSFKINDMGWYRHAPGKERELVATITWSTGTTYYADSVKGLFTISRYNAKNTVYLKMNSLKPEYTAVYYCAADYCSYGYVLFDYWGQGTQVTVSS | low polyreactivity |
| QVQLVESGGGLVQAGGSLRLSCAASGRTYAYYAMGWYRQAPGKERELVAAITRGTDTHYADSVKGRFTISRDNAKNTVYLQMNSLKPEDTAVYYCAADLSQDFDYWGQGTQVTVSS | low polyreactivity |
| QVQLVESGGGLVQAGGSLRLSCAASGFTIASNAMGWYRQAPGKERELVAAIRRSGSRTYYADSVKGRFTISRDNAKNTVYLQMNSLKPEDTAVYYCAVVSPRQSYYYWGQGTQVTVSS | high polyreactivity |
| QVQLVESGGGLVQAGGSLRLSCAASGGTFTSNAMGWYRQAPGKERELVAAISSRGGTYYADSVKGRFTISRDNAKNTVYVQMNSLKPEDTAVYYCAARGYLYSWNVSHTYDYWGQGTQVTVSS | high polyreactivity |
| QVQLVESGGGLVQAGGSLRLSCAASGITLHEYVMGWYRQAPGKERELVAAISRRGDSTYYADSVKGRFTISRDNAKNTVYLQMNSLKPEDTAVYYCAARWYWYWSSWDYYSWGQGTQVTVSS | low polyreactivity |
| KVQLVESGAGLVQAGGSLRFSCAASGSIFIVYAMGWYRPAPGKERELVADITNGGDTNYADSVKGRFTISRDNAKNTVYLQMNSLKPEDTAVYYCAKYLWSYRVRTNVWRSYYWGQGTQVSVSS | high polyreactivity |
| QVQLVESGGGLVQAGGSLRLRCAASGIIFEYYAMGWYRQAPGKERELVAAITWNGGRTYYADSVKGRFTISRDNAKNTVYLQINSLKPEDTAVYYCAALTYYRDYWGLGTQVTVSS | high polyreactivity |
| QVQLVESGGGLVQAGGSLRLSCAASGSTFSRYAMGWYRQAPGKERELVAAITSSGGSSYYADSVKGRFTISRDNAKNTVYLQMNSLKPEDTAVYYCAASYQVRYDYWGQGTQVTVSS | high polyreactivity |
| QVQLVESGGGLVQAGCSLRLSCAASGFTFQVYTMGSYRPAPGKERELVARISRRGGSTYYADSVKGRFTISRDNAKNTVYLQMNSLKPEDTAVYYCAADWYASSYRTYTFDYWGQGTQVTVSS | high polyreactivity |
| QVQLVESGGGLVHAGGSLRLSCAASGSIYPYYAMGWYRQAPGKERELVAVISRGGVRTYYADSVKGRFTISRDNAKNTVYLQMNSLKTEDTAVYYCAAGYPYGVDYWGQGTQVTVSS | high polyreactivity |
| QVQLVESGGGLVQAGGSLRLSCAASGSIFEYNAMGWYRQAPGKERELVAAISRSGGSTYYADSVKGRFTISRDNAKNTVYLQMISLKPEDTAVYYCAARSPRYYRDFGYWGQGTQVTVSS | high polyreactivity |
| QVQLVESGVGVVQAGGSLRLSCAASGRTFLRYTMGGYRQAPGKEREFVAAISYDTSSTYYADSVKGRFTISRDNAKNTVYLQMNSLKPEDTAVYYCAATLSRVSLSYGYWGLGTQVTVSS | low polyreactivity |
| QVQLVESGGGLVQAGGSLRLSCAASGLTFAYYDMGWYIQAPGKEREMVAAITSGGTTNYADSVKGSFTISRDNANNTVYFQMNSLKPEDTAVYYCNADYYSRIVGVRIYEYWGQGTQVTVSS | low polyreactivity |
| QVQLVESGGGLVQAGGSLRLSCAASGSTFYSYAMGWYRQAPGKEREFVAAIRYSGGRTYADSVKGRFTISRDNAKNTVYLQMNSLKPEDTAVYYCAAVYYSYRWPYDYWGQGTQVTVSS | high polyreactivity |
| QVQLGESGGGLVQSGGSLRLSCAASGYIFNHNAMGWYRQAPGKEWELVAGISIGGSTYYADSVKGRFTISRDNAKNTVYLQMNRLIPEDTAVYYCNTQPPLIYRGVKSDYSGQGTQVTVSS | low polyreactivity |
